Earlier results, collected in publication PMC10605242.

How the values were obtained:
C4b (Homo sapiens) = C4b (Homo sapiens) (UniProt P0C0L4)
[1] = target: C4b dimer (B isoform) (Homo sapiens) (UniProt P0C0L5)
[2] = target: C4b dimer (A isoform) (Homo sapiens) (UniProt P0C0L4)

| Kd (C4b (Homo sapiens)) [nM] | Kd [1] [nM] | Kd [2] [nM] | Substance |
| --- | --- | --- | --- |
| 1200 | – | – | CR1 SCR15-18 (from UniProt P17927) |
| – | 445 | 130 | CR1 (from UniProt P17927) |
